{"source": "patent US9175090B2", "about": "“Methods of using an antibody to inhibit WNT-mediated signaling in cancer” (Vanderbilt University, priority 2011, dated 2015)", "key": {"[1]": {"tested_on": "Wnt signaling (TOPflash, TCF/Lef1 promoter luciferase)", "assay": "TOPflash reporter assay in HEK 293 STF cells treated with Wnt3a-conditioned media", "assay_type": "cell-based", "conditions": "24 hours, read-out: IC50, inhibition of TOPflash activation (Wnt signaling)", "description": "Graph represents mean±s.e.m of TOPflash signal normalized to cell number (performed in quadruplicate). […] Data shown represent mean of four independent amplification reactions, graphed as relative expression to unstimulated cells. Expression levels were normalized to β-actin mRNA. Error bars, RQ values with 95% confidence."}, "[2]": {"tested_on": "male C57Bl/6 mice with myocardial infarct", "assay_type": "in vivo", "description": "FIGS. 5A-D. Mouse MI model. Representative mouse EKG tracings pre (FIG. 5A) and post (FIG. 5B) coronary artery ligation. […] Arrows mark lateral and posterior left ventricle (LV). LVIDD, LVIDS=LV internal diameter at systole and […], respectively. RV=right ventricle. […] Cardiac dimensions were obtained from 2-D guided M-mode images (100 frames/sec) and were read blinded using short axis and a parasternal long-axis views with the leading edge method. All echo measurements were averaged over 3 consecutive beats on unsedated mice at 7 and 30 days after infarction. Statistical significance assessed by the Wilcoxon rank sum test.\nMyocardial infarcts were induced in male C57Bl/6 mice by coronary ligation (FIG. 5) as previously described (Alfaro et al., 2008).\nVentricular remodeling and cardiac functional parameters will be assessed by echo.\nMammalian cardiomyocytes irreversibly withdraw from the cell cycle soon after birth and undergo terminal differentiation. […] Therefore, cardiac injury causes permanent myocardial loss and cardiac dysfunction. […] Proliferation was assessed by immunostaining for Ki-67. […] Phosphorylation of histone 3 (pH3) on Ser 10 is an established cellular marker for chromosome condensation during mitotic prophase (van Amerongen and Engel, 2008)."}, "[3]": {"tested_on": "Wnt signaling (TOPflash) in shRNA-CK1α cells", "assay": "TOPflash in Jurkat cell line with inducible shRNA for CK1α", "assay_type": "cell-based", "conditions": "pyrvinium 30 nM, Wnt3a-conditioned media", "method": "(§1) FIGS. 3A-C. […] Phosphorylation of β-catenin on GSK3 sites (p33,37,41) and the priming CK1α site (p45) was detected by immunoblotting. […] Cells were treated with Wnt3a-conditioned media and lysates were assayed for TOPflash to assess Wnt signaling.\n(§2) The inventors used a cell line with reduced CK1α levels due to inducible expression of shRNA against CK1α."}, "[4]": {"molecular_target": "β-catenin degradation complex (Homo sapiens, UniProt P48729)", "sequence (P48729 whole entry, one chain of several)": "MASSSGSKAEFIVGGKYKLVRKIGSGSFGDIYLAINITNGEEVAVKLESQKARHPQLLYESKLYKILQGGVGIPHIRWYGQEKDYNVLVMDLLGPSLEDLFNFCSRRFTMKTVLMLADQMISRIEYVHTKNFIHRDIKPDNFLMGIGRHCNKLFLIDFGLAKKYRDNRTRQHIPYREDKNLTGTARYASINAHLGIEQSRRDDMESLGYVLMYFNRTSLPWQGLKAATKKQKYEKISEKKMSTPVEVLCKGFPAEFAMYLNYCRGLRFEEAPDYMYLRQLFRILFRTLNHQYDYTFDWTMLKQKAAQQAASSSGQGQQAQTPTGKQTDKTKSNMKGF", "assay": "In vitro kinase reaction with purified GSK3, CK1α, Axin and β-catenin", "assay_type": "biochemical", "conditions": "pyrvinium 10 nM, proteins 100 nM each", "method": "as §1, §2"}, "GSK3": {"molecular_target": "GSK3 (Homo sapiens, UniProt P49841)", "sequence (P49841 whole entry)": "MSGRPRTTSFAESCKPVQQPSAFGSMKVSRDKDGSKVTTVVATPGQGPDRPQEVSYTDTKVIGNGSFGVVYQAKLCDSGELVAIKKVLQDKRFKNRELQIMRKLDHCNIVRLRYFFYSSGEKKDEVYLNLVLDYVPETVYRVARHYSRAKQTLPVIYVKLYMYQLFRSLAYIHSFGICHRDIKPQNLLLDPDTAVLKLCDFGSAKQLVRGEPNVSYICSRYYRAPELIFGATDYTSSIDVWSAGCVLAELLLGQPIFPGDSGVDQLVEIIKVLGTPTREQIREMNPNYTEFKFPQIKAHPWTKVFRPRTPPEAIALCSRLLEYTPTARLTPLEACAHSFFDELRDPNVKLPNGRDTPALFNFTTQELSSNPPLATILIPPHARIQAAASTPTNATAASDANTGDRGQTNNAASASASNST", "assay": "GSK3 kinase activity", "assay_type": "biochemical", "conditions": "data not shown", "description": "as §2"}, "CK1α": {"molecular_target": "CK1α (Homo sapiens, UniProt P48729)", "sequence (P48729 whole entry)": "as the sequence (P48729 whole entry, one chain of several) above", "assay": "Binding and activation of purified recombinant kinases", "assay_type": "biochemical"}, "AXIN2 and c-MYC": {"tested_on": "AXIN2 and c-MYC", "assay": "Real-time RT-PCR of endogenous Wnt target genes", "assay_type": "cell-based", "conditions": "normalized to β-actin mRNA"}, "[5]": {"tested_on": "Wnt3a-mediated Wnt signaling (LRP5/6)", "assay": "Wnt3a-mediated activation of the Wnt pathway, TOPflash reporter cell line (antibody)", "assay_type": "cell-based", "method": "FIGS. 11A-B. Wnt activated signaling. (FIG. 11A) Wnt3a activated signaling in 293 HEK cells. (FIG. 11B) Wnt signaling in SW480 colorectal cancer cell line with mutant APC.\nThe inventors examined effects of antibodies on Wnt signaling activated by recombinant Wnt3a, which was added to the media, and effects of antibodies on Wnt signaling in a colorectal cancer line (SW480) that has constitutively active Wnt signaling due to a mutation in the tumor suppressor, APC. […] This was unexpected because the APC mutation is downstream of the LRP6 receptor, to which the antibody is directed."}, "[6]": {"tested_on": "male C57Bl/6 mice with myocardial infarct", "assay": "Acute myocardial infarct model, IV antibody, echocardiography", "assay_type": "in vivo", "method": "FIG. 9. Effect of low and high dose of mabLRP5/6 adminstered post infarct as compared to […] control. LVIDD and LVIDS to represent cardiac remodeling, and EF, ejection fraction, as a measurement of cardiac function, were determined by echocardiography and are plotted as percentage difference values (mean±SD) between 7 and 30 days after infarct.\nThe inventors initiated studies to determine the effectiveness of mMABLRP5/6 on repair and regeneration of injured myocardium using an mouse acute myocardial infarct model. Myocardial infarcts were induced in 8-week old male C57Bl/6 mice ([…]) by coronary ligation (FIG. 9) as previously described (Alfaro et al., 2008). At the time of infarction, the inventors administered 10 μg or 20 μg of mabLRP5/6 in 100 μl PBS or the same amount of IgM as control, intravenously by tail vein injection. The mice received a second dose of mabLRP5/6 or control antibody 72 hours after infarct to maintain at least 50% Wnt inhibition activity in the plasma through 7 days post infarct (data not shown). Ventricular remodeling and cardiac function were analyzed by echocardiography pre-infarct and at 7 and 30 days post MI. Ventricular function was reflected by ejection fraction (EF). LV internal dimension diastolic (LVIDD) and LV internal dimension systolic (LVIDS) reflected remodeling of the infarcted ventricle (FIG. 1). […] Additional numbers of animals as well as histologic myocardial analysis and high-resolution visual sonics studies are pending to determine infarct size and elucidate effects of mabLRP5/6 on endogenous cellular myocardial repair."}, "[7]": {"tested_on": "Axin 2 and Cyclin D transcripts", "assay": "Real time RT-PCR of Wnt target genes in heart homogenates of treated mice", "assay_type": "in vivo", "method": "(§3) The canonical Wnt signaling pathway was assessed using luciferase activity in HEK cells stably transfected with TOPflash reporter. Cells were treated with recombinant Wnt 3a to activate Wnt signaling. […] Cycle thresholds for 18S mRNA transcripts were used to normalize between samples. n=4 mice analyzed at each time point for each cohort. Ki-67-positive cells in the heart (FIG. 8C) and pH3-positive mononucleated, differentiated cardiomyocytes in mabLRP5/6-treated remote myocardium (FIG. 8D).\n(§4) To evaluate whether mabLRP5/6 inhibits Wnt-mediated transcription in vivo, the inventors injected 3 groups of mice IV with increasing amounts of mabLRP5/6 (2.3 μg, 4.7 μg or 9.4 μg, n=3 in each group) or control IgM. Mice were sacrificed after 48 hours and serum and tissue samples were obtained. […] Heart tissues from treated animals were homogenized and total RNA isolated for real time RT-PCR analysis (Young et al., 2005). […] The effect on Axin 2 transcript persisted at 72 hours after a single administration. To obtain evidence that mabLRP5/6 has cellular effects on post-MI myocardium, the inventors analyzed by immuno-histology paraffin-embedded sections from male mice treated with either IgM or mabLRP5/6 12 hours prior to induction of acute MI and then sacrificed 14 days later (n=1 for each condition). They identified >3-fold higher Ki-67^+ and pH3^+ cells in the remote LV from the mabLRP5/6-treated mouse compared to the control IgM-treated mouse (FIGS. 8C-D)."}, "[8]": {"tested_on": "Wnt3a-mediated luciferase activity", "assay": "Plasma of IV-treated mice tested on TOPflash reporter HEK cells", "assay_type": "in vivo", "conditions": "for Greater inhibition of Wnt3a-mediated luciferase activity by plasma compared to IgM controls: 9.4 μg, 100 μl plasma", "method": "as §3, §4"}, "[9]": {"tested_on": "Ki-67+ and pH3+ cells in remote LV", "assay": "Immunohistology of post-MI myocardium after antibody pretreatment", "assay_type": "in vivo, mice", "conditions": "treated 12 hours prior to MI, 14 days, n=1", "method": "as §3\nas §4, with “They identified >3-fold higher Ki-67^+ and pH3^+ cells in the remote LV from the mabLRP5/6-treated mouse compared to the control IgM-treated mouse (FIGS. 8C-D).” left out"}, "[10]": {"tested_on": "β-catenin nuclear accumulation, RKO cells", "assay": "Wnt3a-induced nuclear accumulation of β-catenin in RKO cells", "conditions": "300 pg/ml, 24 hours", "procedure": "RKO cells were treated with Wnt3a in the presence or absence of 300 pg/ml mabLRP6 for 24 hours. Cells were fixed and immunostained for β-catenin (green). DAPI (blue) stains DNA."}, "mice": {"tested_on": "mice", "assay": "In vivo toxicity of mabLRP5/6", "conditions": "mouse"}}, "data": [{"molecule": "Cc1cc(/C=C/c2ccc3cc(N(C)C)ccc3[n+]2C)c(C)n1-c1ccccc1", "note": "[pyrvinium]", "values": [{"measurement": "IC50", "setting": "[1]", "result": "~10", "unit": "nM"}, {"measurement": "Infarct size, comparison between the two cohorts", "setting": "[2]; data not shown", "result": "did not reflect any statistically significant differences"}, {"measurement": "Numbers of Ki-67-positive cells in peri-infarct and remote myocardium, versus Cmpd 211", "setting": "[2]; mouse, in vivo", "result": "significantly higher"}, {"measurement": "Numbers of Ki-67-positive cells in the scar, versus Cmpd 211", "setting": "[2]; mouse, in vivo", "result": "similar"}, {"measurement": "Average difference in fractional shortening between days 7 and 30", "setting": "[2]; single 200 nM injection, p<0.05", "result": "22.3+5.2"}, {"measurement": "Myocyte proliferation in sham-operated animals", "setting": "[2]; single intramyocardial injection into LV apex, data not shown", "result": "did not induce myocyte proliferation"}, {"measurement": "Inhibition of TOPflash activity in shRNA-CK1α cells", "setting": "[3]", "result": "failed to inhibit"}, {"measurement": "β-catenin phosphorylation (GSK3 and CK1α sites)", "setting": "[4]", "result": "dramatic increase"}, {"measurement": "GSK3 activity", "setting": "GSK3", "result": "no observable effect"}, {"measurement": "Phosphorylation of Tau by CK1α", "setting": "CK1α; data not shown", "result": "enhanced"}, {"measurement": "Binding and activation of representative kinases", "setting": "CK1α; pyrvinium 10 nM", "result": "binding and activation of CK1α alone"}, {"measurement": "Levels of endogenous Wnt target genes AXIN2 and c-MYC", "setting": "AXIN2 and c-MYC", "result": "decreases"}]}, {"molecule": "mabLRP5/6: stable hybridoma line monoclonal antibody against LRP5/6 raised in BALB/c mice with human LRP6 fragments; inhibits Wnt signaling (antibody, V domains shown) VH: QVQLKESGPGLVASSQSLSITCTVSGFSLSRYSVHWVRQPPGKGLEWLGMIWGGGSTDYNSALKSRLGISKDNSKSQVFLKMNSLQTDDTAMYYCAGTGSWFAYWGQGTLVTVSA VL: DIQMTQSPASLSASVGETVTITCRASGNIHNYLAWYQQKQGKSPQLLVYNAKTLADGVPSRFSGSGSGTQYSLKINSLQPEDFGSYYCQHFWSTPWTFGGGTKLEIK", "values": [{"measurement": "IC50, inhibition of Wnt signaling", "setting": "[5]", "result": "~0.2", "unit": "ng/mL"}, {"measurement": "Percentage difference in LVIDS between day 7 and day 30", "setting": "[6]; 20 μg compared with 10 μg dose or control IgM", "result": "reduced in a dose-dependent manner"}, {"measurement": "Decrease in ejection fraction (EF) between day 7 and day 30", "setting": "[6]; high dose", "result": "decreased less"}, {"measurement": "Percentage difference in LVIDD between day 7 and day 30", "setting": "[6]; high dose (20 μg IV at infarction and 72 hours)", "result": "5.36±0.83", "unit": "percentage"}, {"measurement": "Decrease in ejection fraction (EF) between day 7 and day 30", "setting": "[6]; low dose", "result": "~6", "unit": "%"}, {"measurement": "Percentage difference in LVIDD between day 7 and day 30", "setting": "[6]; low dose (10 μg IV at infarction and 72 hours)", "result": "6.23 ± 2.3", "unit": "percentage"}, {"measurement": "Wnt inhibition activity in the plasma", "setting": "[6]; second dose at 72 hours, through 7 days post infarct, data not shown", "result": "at least 50%"}, {"measurement": "Reduction in Axin 2 transcripts in heart compared to controls", "setting": "[7]; 48 h", "result": "~2", "unit": "fold"}, {"measurement": "Reduction in Cyclin D transcripts in heart compared to controls", "setting": "[7]; 48 h", "result": "~2", "unit": "fold"}, {"measurement": "Effect on Axin 2 transcript in heart", "setting": "[7]; 72 hours after a single administration", "result": "persisted"}, {"measurement": "Greater inhibition of Wnt3a-mediated luciferase activity by plasma compared to IgM controls", "setting": "[8]; 48 hours after administration", "result": "~5", "unit": "fold"}, {"measurement": "Greater inhibition of Wnt3a-mediated luciferase activity by plasma compared to IgM controls", "setting": "[8]; 72 hours after administration", "result": "~2", "unit": "fold"}, {"measurement": "Wnt signaling in TOPflash reporter cell line treated with plasma", "setting": "[8]; IV 4.7 and 9.4 μg, 50 μl plasma, 48 and 72 hours", "result": "inhibited Wnt signaling"}, {"measurement": "Ki-67+ cells in remote LV, higher than control IgM", "setting": "[9]", "result": "> 3", "unit": "fold"}, {"measurement": "pH3+ cells in remote LV, higher than control IgM", "setting": "[9]", "result": "> 3", "unit": "fold"}, {"measurement": "Wnt3a-induced nuclear accumulation of β-catenin", "setting": "[10]", "result": "blocked"}, {"measurement": "Wnt3a-induced nuclear accumulation of β-catenin", "setting": "[10]; listed as mabLRP6", "result": "inhibits"}, {"measurement": "In vivo toxicity", "setting": "mice", "result": "minimal toxicity"}]}]}
